Reference: paper PMC3683929

Tests used:
MBP-hnRNP A1 [1] = target: T1, MBP-hnRNP A1 (mouse, UniProt P49312 1-320); assay: FP/EMSA
MBP-hnRNP A1 [2] = target: T1, MBP-hnRNP A1; assay: EMSA
MBP-hnRNP A1 [3] = target: T1, MBP-hnRNP A1; assay: fluorescence polarization

T1 sequence (P49312 whole entry): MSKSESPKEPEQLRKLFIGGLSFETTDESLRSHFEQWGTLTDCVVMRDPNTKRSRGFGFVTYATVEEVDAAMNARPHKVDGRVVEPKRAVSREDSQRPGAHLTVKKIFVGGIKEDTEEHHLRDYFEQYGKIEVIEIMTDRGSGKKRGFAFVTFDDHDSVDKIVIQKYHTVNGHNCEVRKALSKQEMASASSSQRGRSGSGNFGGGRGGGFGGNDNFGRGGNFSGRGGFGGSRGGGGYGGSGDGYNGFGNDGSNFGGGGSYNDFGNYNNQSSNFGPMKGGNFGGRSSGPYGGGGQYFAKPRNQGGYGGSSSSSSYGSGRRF

Binder	binding result (MBP-hnRNP A1 [1])	Kd (MBP-hnRNP A1 [2])	Kd (MBP-hnRNP A1 [3])	binding result (MBP-hnRNP A1 [2])
GAGCCCCAGGAGGUAGGUUCCGGGGGCCU (structured_RNA) [Mag exon 12 5'ss rat wt 29 nt (-12 to 17)]	no binding	–	–	–
GGAGGUAGGUAACGG (structured_RNA) [Mag 15 nt A7A8 (A8A9 in Table 1)]	–	106 ± 23 nM	21 ± 4 nM	–
GGAGGUAGGUGGCGG (structured_RNA) [Mag 15 nt G7G8 (G8G9 in Table 1)]	–	70 ± 21 nM	60 ± 18 nM	–
AGGUAGGUUC (ssRNA) [Mag 10 nt wt (-2 to 8)]	–	145 ± 12 nM	–	–
GGAGGUAGGUUUCGG (structured_RNA) [Mag 15 nt U7U8 (U8U9 in Table 1)]	–	171 ± 48 nM	92 ± 37 nM	–
AGGUAAGUUC (ssRNA) [Mag 10 nt G4A]	–	–	–	no binding
